Assay results as given in PMC2614139.

Molecular target: GCaMP2 (original protein with the N-terminal hexahistidine tag and RSET module) (not stated | Aequorea victoria)
Experiment: AUC

GCaMP2 (original protein with the N-terminal hexahistidine tag and RSET module)
stoichiometry N: 2
